Experimental data from publication PMC7672466, “Biophysical analysis of Pseudomonas-phage PaP3 small terminase suggests a mechanism for sequence-specific DNA-binding by lateral interdigitation”.

B1: Cy3-scr (dsDNA)
DNA 1: GCACTGCAGTAACTTGTCAGTCAT
DNA 2: ATGACTGACAAGTTACTGCAGTGC
B2: Cy3-cos (dsDNA)
DNA 1: GCCGGCCCCTTTCCGCGTTA
DNA 2: TAACGCGGAAAGGGGCCGGC

Experiments:
PaP3 ΔC122-TerS [1] = target: T1, PaP3 ΔC122-TerS (Pseudomonas phage PaP3, UniProt Q8H9R5 1-121, del122-152); test: EMSA; 4-16% acrylamide; stronger than WT on scr; EMSA: incubation 37 C 30 min (binding buffer not stated; proteins in GF buffer 20 mM Tris-HCl pH 7.5, 150 mM NaCl, 5 mM bME, 2.5% glycerol); 1% agarose or 4-16% acrylamide gel, 0.5x TBE, 4 C; settings: protein: recombinant; tags: GST removed by PreScission protease; chain copies: 9; label: 5' Cy3; blunt
T1 sequence: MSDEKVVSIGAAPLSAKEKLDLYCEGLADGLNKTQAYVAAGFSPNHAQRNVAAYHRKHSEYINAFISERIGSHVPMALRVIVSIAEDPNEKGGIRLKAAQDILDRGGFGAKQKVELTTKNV

PaP3 ΔC122-TerS [2] = target: T1, PaP3 ΔC122-TerS; test: EMSA; 0.15 uM cos DNA on agarose, also 4-16% acrylamide; comparable to WT; EMSA: incubation 37 C 30 min (binding buffer not stated; proteins in GF buffer 20 mM Tris-HCl pH 7.5, 150 mM NaCl, 5 mM bME, 2.5% glycerol); 1% agarose or 4-16% acrylamide gel, 0.5x TBE, 4 C; settings: protein: recombinant; tags: GST removed by PreScission protease; chain copies: 9; label: 5' Cy3 on both strands; blunt

Binder	binding result (PaP3 ΔC122-TerS [1])	binding result (PaP3 ΔC122-TerS [2])
B1	binds	
B2		binds
